# Test results reported in US20250263504A1 (Takeda / Millennium, published 2025).
# What was measured:
# [1] = target: T1, plasma kallikrein (pKal) (UniProt P03952 20-390; P03952 391-638, limits assumed); test: pKal enzyme inhibition, Ki,app
# T1 construct: the description speaks of human pKal; also called active pKal
# [2] = target: T2, Factor XIIa (FXIIa) (UniProt P00748 20-372; P00748 373-615, limits assumed); test: FXIIa enzyme inhibition, Ki,app
# T2 construct: the description speaks of human FXIIa; also called active Factor XII
# T2 sequence (looked up) 1: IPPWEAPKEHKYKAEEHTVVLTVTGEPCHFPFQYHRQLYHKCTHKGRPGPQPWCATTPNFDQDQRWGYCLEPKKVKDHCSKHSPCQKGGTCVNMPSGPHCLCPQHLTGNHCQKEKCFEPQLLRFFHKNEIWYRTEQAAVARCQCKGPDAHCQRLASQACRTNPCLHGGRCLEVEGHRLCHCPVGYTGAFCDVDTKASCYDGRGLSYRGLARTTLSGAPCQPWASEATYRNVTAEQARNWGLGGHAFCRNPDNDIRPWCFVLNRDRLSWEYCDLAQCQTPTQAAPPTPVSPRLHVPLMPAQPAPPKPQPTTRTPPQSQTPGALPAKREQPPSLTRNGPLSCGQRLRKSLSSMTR
# T2 sequence (looked up) 2: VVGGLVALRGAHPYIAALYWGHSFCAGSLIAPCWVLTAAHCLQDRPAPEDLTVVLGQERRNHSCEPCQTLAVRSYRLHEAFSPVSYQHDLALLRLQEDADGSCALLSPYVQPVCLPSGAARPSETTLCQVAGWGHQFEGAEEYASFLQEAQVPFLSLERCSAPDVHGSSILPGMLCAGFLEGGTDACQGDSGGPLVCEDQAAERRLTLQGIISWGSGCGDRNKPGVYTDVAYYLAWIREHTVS
# [3] = target: T1, plasma kallikrein (pKal); test: enzyme inhibition, corrected Ki,app
# [4] = target: T2, Factor XIIa (FXIIa); test: enzyme inhibition, corrected Ki,app
# [5] = target: T1, plasma kallikrein (pKal); test: enzyme inhibition, peptide substrate, tight-binding fit, Ki,app
# Procedure: (§1) Varying concentrations of the bispecific antibodies were incubated with individual FXIIa and pKal samples, and the ability of these proteases to cleave a peptide substrate was monitored over time by measuring changes in the fluorescence of a chemical moiety covalently attached to the peptide substrate. Slopes of this kinetic data are equivalent to enzymatic proteolytic rates, which are then plotted against the concentration of the inhibitor. The resulting plots are then fit to a tight binding inhibitor equation (Equation 1) by nonlinear regression to obtain apparent inhibition constants (Kᵢ^app).
# [6] = target: T2, Factor XIIa (FXIIa); test: as above
# Procedure: as §1
# T1 sequence (P03952 20-390 limits assumed, form in doubt, chain 1 of 2): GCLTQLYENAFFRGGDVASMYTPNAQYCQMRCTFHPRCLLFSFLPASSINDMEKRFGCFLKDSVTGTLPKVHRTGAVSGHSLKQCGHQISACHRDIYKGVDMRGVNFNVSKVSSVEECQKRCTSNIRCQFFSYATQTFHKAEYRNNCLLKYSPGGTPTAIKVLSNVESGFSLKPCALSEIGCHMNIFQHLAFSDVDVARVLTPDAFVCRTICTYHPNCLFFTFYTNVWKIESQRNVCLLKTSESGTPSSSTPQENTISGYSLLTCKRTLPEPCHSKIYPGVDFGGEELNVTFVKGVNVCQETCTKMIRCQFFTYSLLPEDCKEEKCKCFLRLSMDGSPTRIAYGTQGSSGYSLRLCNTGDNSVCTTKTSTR
# T1 sequence (P03952 391-638 limits assumed, form in doubt, chain 2 of 2): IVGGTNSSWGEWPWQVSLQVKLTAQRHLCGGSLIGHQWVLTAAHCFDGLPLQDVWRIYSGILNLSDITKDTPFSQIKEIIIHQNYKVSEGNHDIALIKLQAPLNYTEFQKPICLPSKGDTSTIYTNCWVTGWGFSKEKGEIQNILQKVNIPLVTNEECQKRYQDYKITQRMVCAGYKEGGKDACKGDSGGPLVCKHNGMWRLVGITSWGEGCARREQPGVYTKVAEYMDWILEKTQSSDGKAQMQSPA
binder,measurement,setting,value
"620I-X0179-C01 (bispecific antibody, human IgG1, kappa, 620I-X0177-A01 with IgG C-terminal Lys changed to Gly; also called 620I-R0052-C01; 620I-X179-C01) heavy: not shown light: DIQMTQSPSTLSASVGDRVTITCRASQSISSWLAWYQQKPGKAPKLLIYKASTLESGVPSRFSGSGSGTEFTLTISSLQPDDFATYYCQQYNTYWTFGQGTKVEIKRTVAAPSVFIFPPSDEQLKSGTASVVCLLNNFYPREAKVQWKVDNALQSGNSQESVTEQDSKDSTYSLSSTLTLSKADYEKHKVYACEVTHQGLSSPVTKSFNRGEC",Ki,[1],243 pM
same,Ki,[2],108 pM
"620I-X0138-B01 (bispecific antibody, human IgG1, kappa, also called 620I-X138-B01) heavy: not shown light: DIQMTQSPSTLSASVGDRVTITCRASQSISSWLAWYQQKPGKAPKLLIYKASTLESGVPSRFSGSGSGTEFTLTISSLQPDDFATYYCQQYNTYWTFGQGTKVEIKRTVAAPSVFIFPPSDEQLKSGTASVVCLLNNFYPREAKVQWKVDNALQSGNSQESVTEQDSKDSTYSLSSTLTLSKADYEKHKVYACEVTHQGLSSPVTKSFNRGEC",Ki,[3],169 pM
same,Ki,[4],6630 pM
"620I-X0142-B11 (bispecific antibody, human IgG1, kappa, also called 620I-X142-B11) heavy: not shown light: DIQMTQSPSTLSASVGDRVTITCRASQSISSWLAWYQQKPGKAPKLLIYKASTLESGVPSRFSGSGSGTEFTLTISSLQPDDFATYYCQQYNTYWTFGQGTKVEIKRTVAAPSVFIFPPSDEQLKSGTASVVCLLNNFYPREAKVQWKVDNALQSGNSQESVTEQDSKDSTYSLSSTLTLSKADYEKHKVYACEVTHQGLSSPVTKSFNRGEC",Ki,[3],622 pM
same,Ki,[4],7720 pM
"X0122-C01 (bispecific antibody, also called X122-C01) heavy: not shown light: DIQMTQSPSTLSASVGDRVTITCRASQSISSWLAWYQQKPGKAPKLLIYKASTLESGVPSRFSGSGSGTEFTLTISSLQPDDFATYYCQQYNTYWTFGQGTKVEIKRTVAAPSVFIFPPSDEQLKSGTASVVCLLNNFYPREAKVQWKVDNALQSGNSQESVTEQDSKDSTYSLSSTLTLSKADYEKHKVYACEVTHQGLSSPVTKSFNRGEC",Ki,[5],161 pM
same,Ki,[6],5690 pM
"X0122-A01 (bispecific antibody, also called X122-A01) heavy: not shown light: DIQMTQSPSTLSASVGDRVTITCRASQSISSWLAWYQQKPGKAPKLLIYKASTLESGVPSRFSGSGSGTEFTLTISSLQPDDFATYYCQQYNTYWTFGQGTKVEIKRTVAAPSVFIFPPSDEQLKSGTASVVCLLNNFYPREAKVQWKVDNALQSGNSQESVTEQDSKDSTYSLSSTLTLSKADYEKHKVYACEVTHQGLSSPVTKSFNRGEC",Ki,[5],169 pM
same,Ki,[6],6050 pM
"620I-X0179-E05 (bispecific antibody, human IgG1, kappa, 620I-X0177-C01 with IgG C-terminal Lys deleted; also called 620I-R0052-E01) heavy: not shown light: DIQMTQSPSTLSASVGDRVTITCRASQSISSWLAWYQQKPGKAPKLLIYKASTLESGVPSRFSGSGSGTEFTLTISSLQPDDFATYYCQQYNTYWTFGQGTKVEIKRTVAAPSVFIFPPSDEQLKSGTASVVCLLNNFYPREAKVQWKVDNALQSGNSQESVTEQDSKDSTYSLSSTLTLSKADYEKHKVYACEVTHQGLSSPVTKSFNRGEC",Ki,[1],203 pM
same,Ki,[2],99 pM
"620I-X0180-A05 (bispecific antibody, human IgG1, kappa, 620I-X0177-G01 with IgG C-terminal Lys deleted; also called 620I-R0052-A03; 620I-X180-A05) heavy: not shown light: DIQMTQSPSTLSASVGDRVTITCRASQSISSWLAWYQQKPGKAPKLLIYKASTLESGVPSRFSGSGSGTEFTLTISSLQPDDFATYYCQQYNTYWTFGQGTKVEIKRTVAAPSVFIFPPSDEQLKSGTASVVCLLNNFYPREAKVQWKVDNALQSGNSQESVTEQDSKDSTYSLSSTLTLSKADYEKHKVYACEVTHQGLSSPVTKSFNRGEC",Ki,[1],254 pM
same,Ki,[2],116 pM
"620I-X0142-E02 (bispecific antibody, also called 620I-X142-E02) heavy: not shown light: DIQMTQSPSTLSASVGDRVTITCRASQSISSWLAWYQQKPGKAPKLLIYKASTLESGVPSRFSGSGSGTEFTLTISSLQPDDFATYYCQQYNTYWTFGQGTKVEIKRTVAAPSVFIFPPSDEQLKSGTASVVCLLNNFYPREAKVQWKVDNALQSGNSQESVTEQDSKDSTYSLSSTLTLSKADYEKHKVYACEVTHQGLSSPVTKSFNRGEC",Ki,[3],162 pM
same,Ki,[4],186 pM
"X0121-E01 (bispecific antibody, also called X121-E01) heavy: not shown light: DIQMTQSPSTLSASVGDRVTITCRASQSISSWLAWYQQKPGKAPKLLIYKASTLESGVPSRFSGSGSGTEFTLTISSLQPDDFATYYCQQYNTYWTFGQGTKVEIKRTVAAPSVFIFPPSDEQLKSGTASVVCLLNNFYPREAKVQWKVDNALQSGNSQESVTEQDSKDSTYSLSSTLTLSKADYEKHKVYACEVTHQGLSSPVTKSFNRGEC",Ki,[5],159 pM
same,Ki,[6],611 pM
"620I-X0179-A09 (bispecific antibody, human IgG1, kappa, 620I-X0177-A01 with IgG C-terminal Lys deleted; also called 620I-R0052-A01; 620I-X179-A09) heavy: not shown light: DIQMTQSPSTLSASVGDRVTITCRASQSISSWLAWYQQKPGKAPKLLIYKASTLESGVPSRFSGSGSGTEFTLTISSLQPDDFATYYCQQYNTYWTFGQGTKVEIKRTVAAPSVFIFPPSDEQLKSGTASVVCLLNNFYPREAKVQWKVDNALQSGNSQESVTEQDSKDSTYSLSSTLTLSKADYEKHKVYACEVTHQGLSSPVTKSFNRGEC",Ki,[1],225 pM
same,Ki,[2],90 pM
"620I-X0180-C11 (bispecific antibody, human IgG1, kappa, 620I-X0177-G01 with IgG C-terminal Lys changed to Gly; also called 620I-R0052-C03; 620I-X180-C11) heavy: not shown light: DIQMTQSPSTLSASVGDRVTITCRASQSISSWLAWYQQKPGKAPKLLIYKASTLESGVPSRFSGSGSGTEFTLTISSLQPDDFATYYCQQYNTYWTFGQGTKVEIKRTVAAPSVFIFPPSDEQLKSGTASVVCLLNNFYPREAKVQWKVDNALQSGNSQESVTEQDSKDSTYSLSSTLTLSKADYEKHKVYACEVTHQGLSSPVTKSFNRGEC",Ki,[1],232 pM
same,Ki,[2],140 pM
"X0120-A01 (bispecific antibody, also called X120-A01) heavy: not shown light: DIQMTQSPSTLSASVGDRVTITCRASQSISSWLAWYQQKPGKAPKLLIYKASTLESGVPSRFSGSGSGTEFTLTISSLQPDDFATYYCQQYNTYWTFGQGTKVEIKRTVAAPSVFIFPPSDEQLKSGTASVVCLLNNFYPREAKVQWKVDNALQSGNSQESVTEQDSKDSTYSLSSTLTLSKADYEKHKVYACEVTHQGLSSPVTKSFNRGEC",Ki,[5],138 pM
same,Ki,[6],51.5 pM
"620I-X0142-D04 (bispecific antibody, also called 620I-X142-D04) heavy: not shown light: DIQMTQSPSTLSASVGDRVTITCRASQSISSWLAWYQQKPGKAPKLLIYKASTLESGVPSRFSGSGSGTEFTLTISSLQPDDFATYYCQQYNTYWTFGQGTKVEIKRTVAAPSVFIFPPSDEQLKSGTASVVCLLNNFYPREAKVQWKVDNALQSGNSQESVTEQDSKDSTYSLSSTLTLSKADYEKHKVYACEVTHQGLSSPVTKSFNRGEC",Ki,[3],170 pM
same,Ki,[4],414 pM
"620I-X0180-G03 (bispecific antibody, human IgG1, kappa, 620I-X0177-E01 with IgG C-terminal Lys changed to Gly; also called 620I-R0052-G03; 620I-X180-G03) heavy: not shown light: DIQMTQSPSTLSASVGDRVTITCRASQSISSWLAWYQQKPGKAPKLLIYKASTLESGVPSRFSGSGSGTEFTLTISSLQPDDFATYYCQQYNTYWTFGQGTKVEIKRTVAAPSVFIFPPSDEQLKSGTASVVCLLNNFYPREAKVQWKVDNALQSGNSQESVTEQDSKDSTYSLSSTLTLSKADYEKHKVYACEVTHQGLSSPVTKSFNRGEC",Ki,[1],208 pM
same,Ki,[2],71 pM
"620I-X0179-G05 (bispecific antibody, human IgG1, kappa, 620I-X0177-C01 with IgG C-terminal Lys changed to Gly; also called 620I-R0052-G01; 620I-X179-G05) heavy: not shown light: DIQMTQSPSTLSASVGDRVTITCRASQSISSWLAWYQQKPGKAPKLLIYKASTLESGVPSRFSGSGSGTEFTLTISSLQPDDFATYYCQQYNTYWTFGQGTKVEIKRTVAAPSVFIFPPSDEQLKSGTASVVCLLNNFYPREAKVQWKVDNALQSGNSQESVTEQDSKDSTYSLSSTLTLSKADYEKHKVYACEVTHQGLSSPVTKSFNRGEC",Ki,[1],226 pM
same,Ki,[2],52 pM
"620I-X0180-E07 (bispecific antibody, human IgG1, kappa, 620I-X0177-E01 with IgG C-terminal Lys deleted; also called 620I-R0052-E03; 620I-X180-E07) heavy: not shown light: DIQMTQSPSTLSASVGDRVTITCRASQSISSWLAWYQQKPGKAPKLLIYKASTLESGVPSRFSGSGSGTEFTLTISSLQPDDFATYYCQQYNTYWTFGQGTKVEIKRTVAAPSVFIFPPSDEQLKSGTASVVCLLNNFYPREAKVQWKVDNALQSGNSQESVTEQDSKDSTYSLSSTLTLSKADYEKHKVYACEVTHQGLSSPVTKSFNRGEC",Ki,[1],243 pM
same,Ki,[2],92 pM
